We go through four molecules from patent US20100216975A1.

Test [1] addresses Human EphA2-Fc fusion protein (human EphA2 fused with the Fc portion of a human IgG1) (human) (UniProt P29317). Put plainly: single point ELISA, 500 ng goat anti-human Fab capture, biotinylated EphA2-Fc; plate of clone VH-233/VL-8G7. (In an ELISA, binding on a coated surface is turned into a signal by an enzyme label.)
For test [2] the target is unchanged. Put plainly: single point ELISA, 500 ng goat anti-human Fab capture, biotinylated EphA2-Fc; plate of clone VH-7E8/VL-8G7.
For test [3] the target is unchanged. Put plainly: single point ELISA, 500 ng goat anti-human Fab capture, biotinylated EphA2-Fc; plate of clone VH-233/VL-12C8.
Test [4] shares this target. Put plainly: single point ELISA, 500 ng goat anti-human Fab capture, biotinylated EphA2-Fc; plate of clone VH-2G6/VL-12C8.
For test [5] the target is unchanged. The test can be described thus: single point ELISA, 500 ng goat anti-human Fab capture, biotinylated EphA2-Fc; plate of clone VH-6H11/VL-8G7.
The target is the same in test [6]. Put plainly: single point ELISA: periplasmic Fab captured on 20 ng goat anti-human Fab, biotinylated human EphA2-Fc, neutravidin-HRP.
Test [7] has the same target. Put plainly: single point ELISA: periplasmic Fab captured on 100 ng goat anti-human Fab, biotinylated human EphA2-Fc, neutravidin-HRP.
Test [8] has the same target. The test can be described thus: single point ELISA: periplasmic Fab captured on 500 ng goat anti-human Fab, biotinylated human EphA2-Fc, neutravidin-HRP.
Test [9] shares this target. The description is as above. This is another data set of the same source.
Test [10] has the same target. Described as above. The source holds these as a separate data set.
Test [11] has the same target. Put plainly: SPR (BIAcore 3000), IgG over immobilized EphA2-Fc (~500 RU), 1:1 Langmuir fit. For orientation: SPR reads the build-up and loss of mass on a sensor chip optically.
Test [12] has the same target. Put plainly: SPR (BIAcore 3000), IgG over immobilized EphA2-Fc, 1:1 Langmuir fit.

Chain of Human EphA2-Fc fusion protein (human EphA2 fused with the Fc portion of a human IgG1) (human) (P29317 24-534 limits assumed): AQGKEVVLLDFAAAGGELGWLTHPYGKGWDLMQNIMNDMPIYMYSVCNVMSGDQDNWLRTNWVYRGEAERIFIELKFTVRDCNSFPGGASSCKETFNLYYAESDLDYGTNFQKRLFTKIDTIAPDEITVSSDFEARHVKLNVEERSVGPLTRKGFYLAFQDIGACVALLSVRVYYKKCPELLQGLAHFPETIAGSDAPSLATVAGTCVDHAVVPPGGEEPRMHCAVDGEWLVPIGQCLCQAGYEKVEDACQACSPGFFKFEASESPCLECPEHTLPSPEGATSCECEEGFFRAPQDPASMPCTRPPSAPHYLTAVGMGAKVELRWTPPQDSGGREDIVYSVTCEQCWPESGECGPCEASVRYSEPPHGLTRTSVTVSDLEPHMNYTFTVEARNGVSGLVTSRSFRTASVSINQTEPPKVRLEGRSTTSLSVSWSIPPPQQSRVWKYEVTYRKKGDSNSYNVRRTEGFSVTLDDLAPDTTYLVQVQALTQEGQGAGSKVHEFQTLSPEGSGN

On to irrelevant antibody (MEDI-493), for which the OD450 (background signal) in [1] turned out to be 0.2; in test [2] it was 0.2; in test [3], 0.1; in test [4], 0.3; in test [5], 0.2; in [6], 0.1. In addition, the OD450 (background signal) is 0.1 to 0.4 in test [7], 0.06 to 0.2 in test [8], 0.3 in test [9] and 0.07 to 0.1 in [10].

B1: mouse anti-human EphA2 monoclonal antibody EA2 (antibody, from a related filing, V domains shown)
VH: DVKLVESGGGLVKPGGSLKLSCAASGFTFSSYTMSWVRQTPEKRLEWVATISSGGTYTYYPDSVKGRFTISRDNAKNTLYLQMSSLKSEDTAMYYCTREAIFTYWGQGTLVTVSA
VL: DIKMTQSPSSMYASLGERVTITCKASQDINNYLSWFQQKPGKSPKTLIYRANRLVDGVPSRFSGSGSGQDYSLTISSLEYEDMGIYYCLKYDEFPYTFGGGTKLEIK
The Kd is the free concentration of one partner at which half of the binding sites on the other are occupied at equilibrium, for simple one-to-one binding. One may read the koff as a measure of how fast the partners let go of each other. Read a high koff as a short-lived complex. In general, kon refers to the rate constant with which the complex forms. The low end stands for slower complex formation, the high end for faster complex formation. In test [11], B1 gave a Kd of 5.94 nM, a koff of 0.00307 s⁻¹ and an on-rate (kon) of 517000 M⁻¹ s⁻¹.

B2: mouse anti-human EphA2 monoclonal antibody B233 (antibody, from a related filing, V domains shown)
VH: EVKLVESGGGLVQPGGSLSLSCAASGFTFTDYSMNWVRQPPGKALEWLGFIRNKANDYTTEYSASVKGRFTISRDNSQSILYLQMNALRAEDSATYYCVRYPRYHAMDSWGQGTSVTVSS
VL: DIVLTQSPATLSVTPGDSVNLSCRASQSISNNLHWYQQKSHESPRLLIKYVFQSISGIPSRFSGSGSGTDFTLSINSVETEDFGMYFCQQSNSWPLTFGAGTKLELK
For the molecule B2, in test [12], the Kd came to 0.4 nM, the koff was 0.00011 s⁻¹ and the kon worked out at 280000 M⁻¹ s⁻¹.

B3: chimaeric form of mAb B233 (VH-233/VL-233) as full length human IgG1 (antibody, from a related filing, V domains shown)
VH: EVKLVESGGGLVQPGGSLSLSCAASGFTFTDYSMNWVRQPPGKALEWLGFIRNKANDYTTEYSASVKGRFTISRDNSQSILYLQMNALRAEDSATYYCVRYPRYHAMDSWGQGTSVTVSS
VL: DIVLTQSPATLSVTPGDSVNLSCRASQSISNNLHWYQQKSHESPRLLIKYVFQSISGIPSRFSGSGSGTDFTLSINSVETEDFGMYFCQQSNSWPLTFGAGTKLELK
Regarding B3, in [12], the equilibrium dissociation constant (Kd) was 0.3 nM, the koff came to 8e-05 s⁻¹ and the kon was determined as 240000 M⁻¹ s⁻¹.
